From US20210388110A1 (published 2021)

Biological target: T1, soluble human CD3ε chain (human, UniProt P07766 23-126, limits assumed)
T1 construct: also called human CD3 epsilon chain
Assay: SPR (Biacore), soluble human CD3ε chain

T1 sequence (P07766 23-126 limits assumed): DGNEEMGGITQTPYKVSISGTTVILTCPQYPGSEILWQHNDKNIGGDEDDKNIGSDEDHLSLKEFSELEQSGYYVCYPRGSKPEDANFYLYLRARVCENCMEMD

| Kd | Binder |
| --- | --- |
| 69.8 nM | TR01H108-E22Hh/none-Hi-Kn010G3/L0011-k0 (antibody, human IgG1, kappa, L234A L235A, N297A, one-arm antibody (single Fab) with Fab-less hinge-Fc chain Hi-Kn010G3) heavy: QVQLVESGGGLVQPGRSLRLSCAASGFTFSNAWMHWVRQAPGKGLEWVAQIKDKSQNYATYTAESVKGRFTISRDDSKNSLYLQMNSLKTEDTAVYYCRYVHYAAGYGVDAWGQGTTVTVSSASTKGPSVFPLAPSSKSTSGGTAALGCLVKDYFPEPVTVSWNSGALTSGVHTFPAVLQSSGLYSLSSVVTVPSSSLGTQTYICNVNHKPSNTKVDKKVEPKSCDKTHTCPPCPAPEAAGGPSVFLFPPKPKDTLMISRTPEVTCVVVDVSHEDPEVKFNWYVDGVEVHNAKTKPREEQYASTYRVVSVLTVLHQDWLNGKEYKCKVSNKALPAPIEKTISKAKGQPREPQVYTLPPSRCELTKNQVSLSCAVKGFYPSDIAVEWESNGQPENNYKTTPPVLDSDGSFFLVSKLTVDKSRWQQGNVFSCSVMHEALHNHYTQKSLSLSPDYKDDDDK EPKSSDKTHTCPPCPAPELLGGPSVFLFPPKPKDTLMISRTPEVTCVVVDVSHEDPEVKFNWYVDGVEVHNAKTKPREEQYNSTYRVVSVLTVLHQDWLNGKEYKCKVSNKALPAPIEKTISKAKGQPREPQVCTLPPSRDELTKNQVSLWCLVKGFYPSDIAVEWESNGQPENNYKTTPPVLDSDGSFFLYSKLTVDKSRWQQGNVFSCSVMHEALHNRYTQKSLSLSP light: DIVMTQSPLSLPVTPGEPASISCRSSQPLVHSNRNTYLHWYQQKPGQAPRLLIYKVSNRFSGVPDRFSGSGSGTDFTLKISRVEAEDVGVYYCGQGTQVPYTFGQGTKLEIKRTVAAPSVFIFPPSDEQLKSGTASVVCLLNNFYPREAKVQWKVDNALQSGNSQESVTEQDSKDSTYSLSSTLTLSKADYEKHKVYACEVTHQGLSSPVTKSFNRGEC |
| 70.6 nM | TR01H109-E22Hh/none-Hi-Kn010G3/L0011-k0 (antibody, human IgG1, kappa, L234A L235A, N297A, one-arm antibody (single Fab) with Fab-less hinge-Fc chain Hi-Kn010G3) heavy: QVQLVESGGGLVQPGRSLRLSCAASGFTFSNAWMHWVRQAPGKGLEWVAQIKDKSQNYATYVAESVKGRFTISRDDSKNSLYLQMNSLKTEDTAVYYCRYVHYAAGYGVDAWGQGTTVTVSSASTKGPSVFPLAPSSKSTSGGTAALGCLVKDYFPEPVTVSWNSGALTSGVHTFPAVLQSSGLYSLSSVVTVPSSSLGTQTYICNVNHKPSNTKVDKKVEPKSCDKTHTCPPCPAPEAAGGPSVFLFPPKPKDTLMISRTPEVTCVVVDVSHEDPEVKFNWYVDGVEVHNAKTKPREEQYASTYRVVSVLTVLHQDWLNGKEYKCKVSNKALPAPIEKTISKAKGQPREPQVYTLPPSRCELTKNQVSLSCAVKGFYPSDIAVEWESNGQPENNYKTTPPVLDSDGSFFLVSKLTVDKSRWQQGNVFSCSVMHEALHNHYTQKSLSLSPDYKDDDDK EPKSSDKTHTCPPCPAPELLGGPSVFLFPPKPKDTLMISRTPEVTCVVVDVSHEDPEVKFNWYVDGVEVHNAKTKPREEQYNSTYRVVSVLTVLHQDWLNGKEYKCKVSNKALPAPIEKTISKAKGQPREPQVCTLPPSRDELTKNQVSLWCLVKGFYPSDIAVEWESNGQPENNYKTTPPVLDSDGSFFLYSKLTVDKSRWQQGNVFSCSVMHEALHNRYTQKSLSLSP light: DIVMTQSPLSLPVTPGEPASISCRSSQPLVHSNRNTYLHWYQQKPGQAPRLLIYKVSNRFSGVPDRFSGSGSGTDFTLKISRVEAEDVGVYYCGQGTQVPYTFGQGTKLEIKRTVAAPSVFIFPPSDEQLKSGTASVVCLLNNFYPREAKVQWKVDNALQSGNSQESVTEQDSKDSTYSLSSTLTLSKADYEKHKVYACEVTHQGLSSPVTKSFNRGEC |
